The target in assay [1] is ribosome-nascent chain complex actively translating a 3'-truncated lepB mRNA encoding the first 155 amino acids (Cy3B-labeled 50S subunit) (E. coli (strain MC4100) | E. coli) (UniProt P00803). The assay can be described thus: FRET or BRET; as a1 but 250 nM EF-G (slower elongation).
Assay [2] shares this target. Description: FRET or BRET; single-molecule FRET in zero-mode waveguides; 100 nM Cy5-SRP in solution, RNCs translating lepB mRNA (155 amino acids) held by the biotinylated mRNA; 750 nM EF-G; Tris-based polymix buffer with 5 mg/ml BSA and 10 µM Blocking oligo; rates estimated from the time at which curves reach 50%.

In assay [1], “Cy5-labeled E. coli signal recognition particle (Ffh(E153C)-Cy5 reconstituted with 4.5S RNA) (from UniProt P0AGD7 1-453) (complex)” came in with a half-time of arrival after the initial binding event (2nd–10th arrivals) of 12 s and a half-time of first arrival of 350 s. Besides, in assay [2], the half-time of arrival after the initial binding event (2nd–10th arrivals) is 5 s, the half-time of first arrival was 280 s and the kon was 1.8e+06 M⁻¹ s⁻¹.

The values are drawn from PMC4213662.
